Laboratory results published in patent US20140105889A1 (published 2014).

How the values were obtained:
human FcγRIIIa(F) [1] = biological target: T1, human FcγRIIIa(F) (human, UniProt P08637 17-208, limits assumed); experiment: SPR (Biacore), antibody captured, FcγR as analyte
T1 construct: also called FcgRIIIaF; FcγRIIIa allotype F158
T1 sequence (P08637 other isoform, or with tags, fused parts or gaps limits assumed): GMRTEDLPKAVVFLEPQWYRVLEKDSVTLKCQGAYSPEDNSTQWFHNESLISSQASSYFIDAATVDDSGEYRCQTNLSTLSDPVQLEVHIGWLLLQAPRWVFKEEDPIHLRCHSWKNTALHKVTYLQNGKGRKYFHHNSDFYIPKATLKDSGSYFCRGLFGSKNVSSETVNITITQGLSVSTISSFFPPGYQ
Method: (§1) Interaction between each modified antibody and Fcγ receptor prepared in the manner described above was analyzed using the Biacore T100 (GE Healthcare), Biacore T200 (GE Healthcare), Biacore A100 or Biacore 4000. HBS-EP+ (GE Healthcare) was used for the running buffer, and measurements were carried out at 25° C. The chips used were chips in which antigen peptides, Protein A (Thermo Scientific), Protein A/G (Thermo Scientific) or Protein L (ACTIGEN or BioVision) were immobilized on the Series S Sensor Chip CM5 (GE Healthcare) or Series S Sensor Chip CM4 (GE Healthcare) by amine coupling, or chips in which preliminarily biotinylated antigen peptides were allowed to interact and then immobilized on the Series S Sensor Chip SA (certified) (GE Healthcare). The target antibodies were captured on these sensor chips, Fcγ receptor diluted with the running buffer was allowed to interact, followed by measurement of the amount of bound antibody. The amounts bound were compared between antibodies. However, since the amount of Fcγ receptor bound depends on the amount of captured antibody, the values used for comparison were first corrected by dividing the amount of Fcγ receptor bound by the captured amount of each antibody. Through reaction with 10 mM glycine-HCl at pH 1.5, the sensor chips were regenerated by washing off antibody captured on the sensor chips and used repeatedly.
(§2) Binding strength was evaluated according to the following method based on the results of analyzing the interaction with each FcγR. […] That value was then further multiplied by 100, and the resulting value was used as an indicator of relative binding activity to each FcγR.

human FcγRIIIa(F) [2] = biological target: T2, human FcγRIIIa(F) (human, UniProt P08637 17-208, limits assumed); experiment: SPR (Biacore), captured antibody, FcγR analyte; bound amount relative to GpH7-B3/GpL16-k0 x100;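 note: receptor response divided by the antibody amount captured on the chip before comparison with the reference antibody, measured at 25 °C in HBS-EP+ running buffer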
T2 construct: also called FcgRIIIaF; FcγRIIIa allotype F158
T2 sequence (P08637 other isoform, or with tags, fused parts or gaps limits assumed): as above
Method: as §1, §2

relative binding activity (amount bound / amount bound by GpH7-B3/GpL16-k0 x100) (human FcγRIIIa(F) [1]) | relative binding activity (human FcγRIIIa(F) [2]) | Binder
23 % of GpH7-B3/GpL16-k0 | – | GpH7-B3 D270A / GpL16-k0 (antibody, human IgG1, B3 variant: anti-glypican-3 IgG1 (constant region B3 = G1d with K439E) with one substitution, EU numbering; also called B3 variant D270A; copies: 2 + 2) heavy: not shown light: DIVMTQSPLSLPVTPGEPASISCQASESLVHSNRNTYLHWYLQKPGQSPQLLIYKVSNRFSGVPDRFSGSGSGTDFTLKISRVEAEDVGVYYCSQNTHVPPTFGQGTKVEIE
57 % of GpH7-B3/GpL16-k0 | – | GpH7-B3 P271W / GpL16-k0 (antibody, human IgG1, B3 variant: anti-glypican-3 IgG1 (constant region B3 = G1d with K439E) with one substitution, EU numbering; also called B3 variant P271W; copies: 2 + 2) heavy: not shown light: DIVMTQSPLSLPVTPGEPASISCQASESLVHSNRNTYLHWYLQKPGQSPQLLIYKVSNRFSGVPDRFSGSGSGTDFTLKISRVEAEDVGVYYCSQNTHVPPTFGQGTKVEIE
12 % of GpH7-B3/GpL16-k0 | – | GpH7-B3 D270F / GpL16-k0 (antibody, human IgG1, B3 variant: anti-glypican-3 IgG1 (constant region B3 = G1d with K439E) with one substitution, EU numbering; also called B3 variant D270F; copies: 2 + 2) heavy: not shown light: DIVMTQSPLSLPVTPGEPASISCQASESLVHSNRNTYLHWYLQKPGQSPQLLIYKVSNRFSGVPDRFSGSGSGTDFTLKISRVEAEDVGVYYCSQNTHVPPTFGQGTKVEIE
– | 35 % of GpH7-B3/GpL16-k0 | GpH7-B3/GpL16-k0 with Y300K introduced into GpH7-B3 (antibody, human IgG1, Anti-glypican-3 human IgG1; constant region B3 (G1d with K439E); Fc variant; also called B3 variant; copies: 2 + 2) heavy: not shown light: DIVMTQSPLSLPVTPGEPASISCQASESLVHSNRNTYLHWYLQKPGQSPQLLIYKVSNRFSGVPDRFSGSGSGTDFTLKISRVEAEDVGVYYCSQNTHVPPTFGQGTKVEIE
62 % of GpH7-B3/GpL16-k0 | – | GpH7-B3 P271S / GpL16-k0 (antibody, human IgG1, B3 variant: anti-glypican-3 IgG1 (constant region B3 = G1d with K439E) with one substitution, EU numbering; also called B3 variant P271S; copies: 2 + 2) heavy: not shown light: DIVMTQSPLSLPVTPGEPASISCQASESLVHSNRNTYLHWYLQKPGQSPQLLIYKVSNRFSGVPDRFSGSGSGTDFTLKISRVEAEDVGVYYCSQNTHVPPTFGQGTKVEIE
39 % of GpH7-B3/GpL16-k0 | – | GpH7-B3 P271F / GpL16-k0 (antibody, human IgG1, B3 variant: anti-glypican-3 IgG1 (constant region B3 = G1d with K439E) with one substitution, EU numbering; also called B3 variant P271F; copies: 2 + 2) heavy: not shown light: DIVMTQSPLSLPVTPGEPASISCQASESLVHSNRNTYLHWYLQKPGQSPQLLIYKVSNRFSGVPDRFSGSGSGTDFTLKISRVEAEDVGVYYCSQNTHVPPTFGQGTKVEIE
10 % of GpH7-B3/GpL16-k0 | – | GpH7-B3 Q295W / GpL16-k0 (antibody, human IgG1, B3 variant: anti-glypican-3 IgG1 (constant region B3 = G1d with K439E) with one substitution, EU numbering; also called B3 variant Q295W; copies: 2 + 2) heavy: not shown light: DIVMTQSPLSLPVTPGEPASISCQASESLVHSNRNTYLHWYLQKPGQSPQLLIYKVSNRFSGVPDRFSGSGSGTDFTLKISRVEAEDVGVYYCSQNTHVPPTFGQGTKVEIE
33 % of GpH7-B3/GpL16-k0 | – | GpH7-B3 P271Y / GpL16-k0 (antibody, human IgG1, B3 variant: anti-glypican-3 IgG1 (constant region B3 = G1d with K439E) with one substitution, EU numbering; also called B3 variant P271Y; copies: 2 + 2) heavy: not shown light: DIVMTQSPLSLPVTPGEPASISCQASESLVHSNRNTYLHWYLQKPGQSPQLLIYKVSNRFSGVPDRFSGSGSGTDFTLKISRVEAEDVGVYYCSQNTHVPPTFGQGTKVEIE
– | 35 % of GpH7-B3/GpL16-k0 | GpH7-B3/GpL16-k0 with S324P introduced into GpH7-B3 (antibody, human IgG1, Anti-glypican-3 human IgG1; constant region B3 (G1d with K439E); Fc variant; also called B3 variant; copies: 2 + 2) heavy: not shown light: DIVMTQSPLSLPVTPGEPASISCQASESLVHSNRNTYLHWYLQKPGQSPQLLIYKVSNRFSGVPDRFSGSGSGTDFTLKISRVEAEDVGVYYCSQNTHVPPTFGQGTKVEIE
76 % of GpH7-B3/GpL16-k0 | – | GpH7-B3 P271R / GpL16-k0 (antibody, human IgG1, B3 variant: anti-glypican-3 IgG1 (constant region B3 = G1d with K439E) with one substitution, EU numbering; also called B3 variant P271R; copies: 2 + 2) heavy: not shown light: DIVMTQSPLSLPVTPGEPASISCQASESLVHSNRNTYLHWYLQKPGQSPQLLIYKVSNRFSGVPDRFSGSGSGTDFTLKISRVEAEDVGVYYCSQNTHVPPTFGQGTKVEIE
33 % of GpH7-B3/GpL16-k0 | – | GpH7-B3 D270L / GpL16-k0 (antibody, human IgG1, B3 variant: anti-glypican-3 IgG1 (constant region B3 = G1d with K439E) with one substitution, EU numbering; also called B3 variant D270L; copies: 2 + 2) heavy: not shown light: DIVMTQSPLSLPVTPGEPASISCQASESLVHSNRNTYLHWYLQKPGQSPQLLIYKVSNRFSGVPDRFSGSGSGTDFTLKISRVEAEDVGVYYCSQNTHVPPTFGQGTKVEIE
23 % of GpH7-B3/GpL16-k0 | – | GpH7-B3 D270I / GpL16-k0 (antibody, human IgG1, B3 variant: anti-glypican-3 IgG1 (constant region B3 = G1d with K439E) with one substitution, EU numbering; also called B3 variant D270I; copies: 2 + 2) heavy: not shown light: DIVMTQSPLSLPVTPGEPASISCQASESLVHSNRNTYLHWYLQKPGQSPQLLIYKVSNRFSGVPDRFSGSGSGTDFTLKISRVEAEDVGVYYCSQNTHVPPTFGQGTKVEIE
87 % of GpH7-B3/GpL16-k0 | – | GpH7-B3 Q295S / GpL16-k0 (antibody, human IgG1, B3 variant: anti-glypican-3 IgG1 (constant region B3 = G1d with K439E) with one substitution, EU numbering; also called B3 variant Q295S; copies: 2 + 2) heavy: not shown light: DIVMTQSPLSLPVTPGEPASISCQASESLVHSNRNTYLHWYLQKPGQSPQLLIYKVSNRFSGVPDRFSGSGSGTDFTLKISRVEAEDVGVYYCSQNTHVPPTFGQGTKVEIE
11 % of GpH7-B3/GpL16-k0 | – | GpH7-B3 D270H / GpL16-k0 (antibody, human IgG1, B3 variant: anti-glypican-3 IgG1 (constant region B3 = G1d with K439E) with one substitution, EU numbering; also called B3 variant D270H; copies: 2 + 2) heavy: not shown light: DIVMTQSPLSLPVTPGEPASISCQASESLVHSNRNTYLHWYLQKPGQSPQLLIYKVSNRFSGVPDRFSGSGSGTDFTLKISRVEAEDVGVYYCSQNTHVPPTFGQGTKVEIE
50 % of GpH7-B3/GpL16-k0 | – | GpH7-B3 P271H / GpL16-k0 (antibody, human IgG1, B3 variant: anti-glypican-3 IgG1 (constant region B3 = G1d with K439E) with one substitution, EU numbering; also called B3 variant P271H; copies: 2 + 2) heavy: not shown light: DIVMTQSPLSLPVTPGEPASISCQASESLVHSNRNTYLHWYLQKPGQSPQLLIYKVSNRFSGVPDRFSGSGSGTDFTLKISRVEAEDVGVYYCSQNTHVPPTFGQGTKVEIE
17 % of GpH7-B3/GpL16-k0 | – | GpH7-B3 D270S / GpL16-k0 (antibody, human IgG1, B3 variant: anti-glypican-3 IgG1 (constant region B3 = G1d with K439E) with one substitution, EU numbering; also called B3 variant D270S; copies: 2 + 2) heavy: not shown light: DIVMTQSPLSLPVTPGEPASISCQASESLVHSNRNTYLHWYLQKPGQSPQLLIYKVSNRFSGVPDRFSGSGSGTDFTLKISRVEAEDVGVYYCSQNTHVPPTFGQGTKVEIE
